Reference: paper PMC1807944
“And” between values parts separate entries of the source, which are not always exact repeats. Equal entries are not always repeated.

Assays:
[1] = biological target: HIV-1 integrase (IN), monomer E (HIV-1) (UniProt P04585); test: SAXS titration
HIV-1 integrase (HIV-1) = test: SAXS

Substance	Kd [1] [nM]	stoichiometry N (HIV-1 integrase (HIV-1))
AAAAAAAAAAAAAAAAAAAAA (double strand) [ds A21-T21]	40	–
HIV-1 integrase (enzyme)	–	2 and 4
